# Measured values published in the nanobody polyreactivity screen of Harvey et al. (2022).
# Test: yeast display, Sf9 membrane polyspecificity reagent, FACS + sequencing; frameworks hold sequencing errors
# In short: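 Synthetic nanobody libraries on Saccharomyces cerevisiae BJ5465 were galactose-induced for 36–48 hours, stained 1 hour at 4 °C with 10% biotinylated, detergent-solubilized Sf9 membrane reagent and enriched on streptavidin microbeads. FACS then separated cells into low and high (top ~1%) gates by anti-HA (expression) and streptavidin (reagent binding) fluorescence. Genes were colony-PCR amplified, MiSeq 2 × 250 sequenced and CDR-length filtered. A clone's polyreactivity label is that of its gate of origin.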
row,Sequence,polyreactivity (PSR sort gate)
1,QVQLVESGGGLVQAGGSLRLSCAASGSTMLDYAMGWYRQAPGKERELVAAISWSGGSTRYADSVKGRFTISRDNAKNTVFLQMNSLKPEDTAVYYCAATGFSYRYFQTRDYWGQGTQVTVSS,high polyreactivity
2,QVQLVESGGGLVQAGGSLRLSCAASGSTRYWYAMGWYRQAPGKEREFFAGISIGGRTNYADSVKGRFTISRDNAKNTVYLQMNSLKPEDTAVYYCNAENTYVGSRYRPYNYWGQGTLVTVSS,low polyreactivity
3,QVQLVESGGGLVQAGGSLRLSCAASGSTSAWYAMGWYRQAPGKERQLVATISSRGGSTYYADSVKGRFTISRDNAKNTVYLQMNSLKPEDTAVYYCAARIGATYWVDWTHRAYDYWGQGTQVTVSS,high polyreactivity
4,QVQLVESGGGLVQAGGSLRLSCAASGSTSCIYAMGCYRQAPGKERELVAAISGSGVSTYYADSVKGRFTISRDNAKNTVYLQMNSLKPEDTAVYYCAAGYYGNGVFEYDYWGQGTQVTVSS,low polyreactivity
5,QVQLVESGGGLVQAGGSLRLSCAASGSTSCSNAMGWSRQAPGKERELVAAITTGASTYYADSVKGRFTISRDNAKNTVYLQMNSLKPEDTAVYYCAADPWVLWSYYYWGQGTQVTVSS,low polyreactivity
6,QVQLVESGGGLVQAGGSLRLSCAASGSTSDINAMGWYRQAPGKERELVAVITDSSNTDYADSVKGRFTISRDNAKNTVYLQMNSLKPEDTAVYYCAADRDEPDPYDYWGQGTQVTVSS,low polyreactivity
7,QVQLVESGGGLVQAGGSLRLSCAASGSTSGIYAMGWYRQAPGKERELVAAIDTSGGSTYADSVKGRFTISRDNAKNTVYLQMNSLKPEDTAVYYCAKPFSSNSWSHGYWGQGTQVTVSS,low polyreactivity
8,QVQLVESGGGLVQAGGSLRLSCAASGSTSGIYAMGWYRQAPGKERELVARINSGGSTYYADSVKGRFTISRDNAKNTVYLQMNSLKPEDTAVYYCNRVPNKYGRPIDSRWRGDYWGQGTQVTVSS,low polyreactivity
9,QVQLVESGGGLVQAGGSLRLSCAASGSTSGKNAMGWYRQAPGKERELVAVITYSGSRTYYADSVKGRFTISRDNAKNTVYLQMNSLKPEDTAVYYCAAVGGGVSFRGNYWGQGTQVTVSS,high polyreactivity
10,QVQLVESGGGLVQAGGSLRLSCAASGSTSGRNVMGWYIQAPGKERELVAAISSRGGSTYYADSVKGRFTISRDNAKNTVYLQMNSLKPEDTAVYYCAARYGAYSGYDYWGQGTQVTVSS,high polyreactivity
11,QVQLVESGGGLVQAGGSLRLSCAASGSTSHQYAMGWYRQAPGKERELVAAISSRAGSTYYADSVKGRFTISRDNAKNTVYLQMNSLKPEDTAFYYCAADADSWKWGYDYWGQGTQVTVSS,low polyreactivity
12,QVQLVESGGGLVQAGGSLRLSCAASGSTSLINVMGWYRQAPGKERELVAAISSSDGSTYYADSVKGRFTISRDNAKNTVYLQMNSLKPEDTAVYYCNADYYGYYGLMGYWGQGTLVTVSS,low polyreactivity
13,QVQLVESGGGLVQAGGSLRLSCAASGSTSLSYVMGWYRQAPGKERELVASITSSGGSTYYADSVKGRFTISRDNAKNTVYLQMNSLKPEDTAVYYCNARSYIDPFSPTSYYRYYWGQGTQVTVSS,high polyreactivity
14,QVQLVESGGGLVQAGGSLRLSCAASGSTSMSYVKGWYRQAPGKERELVASITSSGGSTYYADSVKGLFTISRDNAKNTVYLQMNSLKPEDTAVYYCNARSYIYPFSPTSYYRYYWGQGTQVTVSS,high polyreactivity
15,QVQLVESGGGLVQAGGSLRLSCAASGSTSPAYAMGWYRQAPGKERELVAVITGSGASTYYADSVKGRFTISRDNAKNTVYLQMNSMKPEDTAVYYCAADVGFGVVFYDYWGQGTQVTVSS,low polyreactivity
16,QVQLVESGGGLVQAGGSLRLSCAASGSTSPGYAMGWYRQAPGKERELVAAITWNGGSTYYADSVKGRFTISRDNAKNTVYLQMNSLKPEDTAVYYCNKLSGYGWRSYGYWGQGTQVTVSS,high polyreactivity
17,QVQLVESGGGLVQAGGSLRLSCAASGSTSPRNAMGWYRQAPGKERELVAAISSGGRTNYADSVKGRFTISRDNAKNTVYLQMNSLKPEDTAVYYCAAEVQSTYWGQGTQVTVSS,low polyreactivity
18,QVQLVESGGGLVQAGGSLRLSCAASGSTSQTYTMGWYRQAPGKERELVAAISLRGGRTYYADSVKGRFTISRDNAKNTVYLQMNSLKPEDTAVYYCNRDYRGPYYYWGQGTQVTVSS,high polyreactivity
19,QVQLVESGGGLVQAGGSLRLSCAASGSTSSPNAMGRYRQAPGKEREFVAAISRSGGSTYYADSVKGRFTISRDNAKNTVYLQMNSLKPEETSVHYCAATVTVFYTRYYYWGQGTQVTVSS,high polyreactivity
20,QVQLVESGGGLVQAGGSLRLSCAASGSTSSPYAMGWYRQAPGKERELVAAITSGGSTNYADSVKGRFTISRDNAKNTVYLEMNSLKPEDTAVYYCATRIYGWSFGSWYKYDYRGQGTQVTVSS,low polyreactivity
21,QVQLVESGGGLVQAGGSLRLSCAASGSTSSVYTMGWYRPAPGKERELVASISIRGTRTYADSVKGRFTISRDNAKNTVYLQMNSLKPEDTAVYYCAARYPWYVYTIYGYWGQGTQVTVSS,high polyreactivity
22,QVQLVESGGGLVQAGGSLRLSCAASGSTSSYYAMGWYRQAPGKERELVAAIRTSGRTYYADSVKGRFTISRDNAKNTVYLQMNSLKPEDTAVYYCNAVYVSPDYDSWGQGTQVTVSS,high polyreactivity

row,Sequence,polyreactivity (PSR sort gate)
1,QVQLVESGGGLVQAGGSLRLSCAASGSTSTDYAMGWYRQAPGKERELVAAISYGGGSTYYADSVKGRFTISRDNAKNTVYLQMNSLKPEDTAVYYCAAVARFPKYRYYSWGQGTQVTVSS,high polyreactivity
2,QVQLVESGGGLVQAGGSLRLSCAASGSTSTQYAMGWYRQAPGKERELVAGITQSGGSTYYADSVKGRFTISRDNAKNTVYLQMNSLKPEDTAVYYCAAPPGYTGRYDYYYWGQGTQVTVSS,high polyreactivity
3,QVQLVESGGGLVQAGGSLRLSCAASGSTSTYNAMGWYRQAPGKERELVAAITESGGSTYYADSVKGRFTISRDNAKNTVYLQMNSLKPEDTAVYYCAADLTYTYEFWGQGTQVTVSS,low polyreactivity
4,QVQLVESGGGLVQAGGSLRLSCAASGSTSVDYTMGWSRQAPGKERELVAAIDYNGDSTYYADSVKGRFTISRDNAKITVYLQMNRLKPEDTAVYYCADDVWTLDPDEYDYWGQGTQVTVSS,low polyreactivity
5,QVQLVESGGGLVQAGGSLRLSCAASGSTSWLNAMGWYRQATGKERELVAAISVNTGSTYYADSVKGRFTISRDNAKNTVYLQMNSLKPEDTAVYYCAARGRGHGTTPNDYWGQGTQVTVSS,high polyreactivity
6,QVQLVESGGGLVQAGGSLRLSCAASGSTSYNAMGWYRQAPGKERELVAAISDGGGSTYYADSVKGRFTISRDNAKNTVYLQMNSLKPEDTAVYYCAADTITGDGYWAQGTQVTVSS,low polyreactivity
7,QVQLVESGGGLVQAGGSLRLSCAASGSTSYRYAMGWYRQAPGKERELVAAISSSGGSTYYADSVKGRFTISRDNAKNTVYLQMNSLKPEDTAVYYCAARFYSGPGGYTMYYWGQGTQVTVSS,high polyreactivity
8,QVQLVESGGGLVQAGGSLRLSCAASGSTSYTNAMGWYRQAPGKERELVARITNDGSTTYADSVKGRFTISRDNAKNTVYLQMNSLKPEDTAVYYCARPYRFWRYYGMYYWGQGTQVTVSS,high polyreactivity
9,QVQLVESGGGLVQAGGSLRLSCAASGSTSYWYAMGWYRQAPGKERELVAAISSDDSTHYADSVKGRFTISRDNAKNTVYLQMNSLKPEDTAVYYFNREHYLIRYDYWGQGTQVTVSS,low polyreactivity
10,QVQLVESGGGLVQAGGSLRLSCAASGSTSYYYTMGWYRQAPGKERELVASISSSGTSTYYADSVKGRFTISRDNPKNTVYLQMNSLKPEDTAVYYCAATADNNTPSGYDYWGQGTQVTVSS,high polyreactivity
11,QVQLVESGGGLVQAGGSLRLSCAASGSTVGHYAMGWYRQAPGKERELVAAISVSGGSTYYADSVKGRFTISRDTAKNTVYLQMNSLKPEDTAVYYCAREYAHLSFLSTSSDYWGQGTQVTVSS,low polyreactivity
12,QVQLVESGGGLVQAGGSLRLSCAASGSTVHYMGWYRQAHGKESELVAGISWSGGSTYYADSVKGRFTISRDNAKKTVYLQINSLKPEDTAVYYCAADIKIRLYTTGDYWGQGTQVTVSS,low polyreactivity
13,QVQLVESGGGLVQAGGSLRLSCAASGSTVHYMGWYRQAPGKERELVAGISWSGGSTYYADSVKGRFTISRDNAKNTVYLQMNSLKPEDTAVYYCAADIKIRLYTTGDYWGQGSQVTVSS,low polyreactivity
14,QVQLVESGGGLVQAGGSLRLSCAASGSTVWFYAMGWYRQAPGKERELVAVISNSGSTYYADSVKGRFTISRDNAKNTVYLQMNSLKPEDTAVYYCNKDGGGDSYWYDYWGQGTQVTVSS,low polyreactivity
15,QVQLVESGGGLVQAGGSLRLSCAASGSTYAFYAMGWYRQAPGKERELVAAITSGGSTKYADSVKGRFTISRDNAKNTVYLQMNSLKPEDTAFYYCAARSRWSKLFRYDYWGQGTQVTVSS,high polyreactivity
16,QVQLVESGGGLVQAGGSLRLSCAASGSTYATYAMGWYRQAPGKERELVAVITRGGRTYYADSVKGRFTISRDNAKNTVYLQMNSLKPEDTAVYYCAARTLWYVIFTLHDYNYWGQGTQVTVSS,high polyreactivity
17,QVQLVESGGGLVQAGGSLRLSCAASGSTYDYNAMGWYIQAPGKERELDAAINSGASTYYGDSVKGRFTISRDNEKNSVYLQMNSMKPEDTAVYYCAKDYPYIGDYWGQCTQVTVSS,low polyreactivity
18,QVQLVESGGGLVQAGGSLRLSCAASGSTYGGYTMGWYRPAPGKVWELVAAIRLSGVSTYYADSVKGRFTISRDNAKNTVYLQMNSLKPEDTAVYYCAARGWYRYGSVYYIGDYWGQGTQVTVSS,high polyreactivity
19,QVQLVESGGGLVQAGGSLRLSCAASGSTYISYAMGWYRQAPGKERELVAAITVSGGRTYYADSVKGRFTISRDNAKNTVYLQMNSLKPEDTAVYYCARGYARSRRWRFDYWGQGTQVTVSS,high polyreactivity
20,QVQLVESGGGLVQAGGSLRLSCAASGSTYKFYAMGWYRQATGKERELVAAISGSSGSTYYADSVKGRFTISRDNAKNTVYLQMNSLKPEDTAVYYWNTQYSRYYTRYSAYDYWGQGTQVTVSS,low polyreactivity
21,QVQLVESGGGLVQAGGSLRLSCAASGSTYKGYAMGWYRQAPGKERELVAAISSSGGGTYYADSVKGRFTISRDNAKNTVYLQMNSLKPEDTAVYYCAATYYRGNYRTHYDYWGQGTQVTVSS,high polyreactivity
